# Experimental data: patent publication US20230329245A1, “COMPOSITIONS AND METHODS OF USE THEREOF” (Curie Co. Inc., priority 2020, published 2023)
# Several values for one entry are separate records, joined by “and”; a condition that tells them apart may be missing. Identical values can stand only once.
# B1: Tgase (SEQ ID NO: 6): variant Streptomyces mobaraensis transglutaminase (SEQ ID NO:2) with N-terminal Methionine, C-terminal peptide linker and hexa-His-Tag (protein)
# chain: MDPDDRVTPPAEPLDRMPDPYRPSYGRAETVVNNYIRKWQQVYSHRDGRKQQMTEEQREWLSYGCVGVTWVNSGQYPTNRLAFASFDEDRFKNELKNGRPRSGETRAEFEGRVAKESFDEEKGFQRAREVASVMNRALENAHDESAYLDNLKKELANGNDALRNEDARSPFYSALRNTPSFKERNGGNHDPSRMKAVIYSKHFWSGQDRSSSADKRKYGDPDAFRPAPGTGLVDMSRDRNIPRSPTSPGEGFVNFDYGWFGAQTEADADKTVWTHGNHYHAPNGSLGAMHVYESKFRNWSEGYSDFDRGAYVITFIPKSWNTAPDKVKQGWPLEHHHHHH
# Legend:
# Format in all cases: cell-based
# C. albicans ATCC 10231 = test: Growth reduction of C. albicans culture (OD600 / BacTiter-Glo); conditions: C. albicans ATCC 10231
# Experimental: For MIC determination of yeast cultures, C. albicans ATCC 10231 was grown overnight (24 hours) in YPD media at 30° C. The following day, the cell density of the saturated cultures was calculated using OD600 and cultures were diluted to 10^4 to 10^6 CFU/mL in sterile YPD media to generate the inoculum, and 90 μL of the inoculum was combined with 10 μL of serially diluted Tgase SEQ ID NO:1 at a range of 0.0001-0.01 weight percent. The cultures were grown overnight at 30° C. and growth curves were measured by OD600 on a BioTek® Synergy Plate Reader. Optionally, the following day, a cell viability assay such as BacTiter-Glo™ (Promega®) following manufacturer's protocols) could be used to assess cell viability. A decrease in OD600 or luminescence indicated a decrease in cell viability. Results are presented as a percent reduction in cell count relative to an untreated culture. All test conditions were performed in triplicate.
# Yeast or bacterial starter cultures were grown as described previously. Tgase (SEQ ID NO:6) was added to each culture at 0.001-1 weight percent. The cultures were grown overnight at 30° C.-37° C. and growth curves were measured by a BioTek® Synergy Plate Reader.
# P. aeruginosa ATCC 9027 = test: MIC determination, P. aeruginosa; conditions: CAMHB pH 7.3, 37° C., 18 to 20 hours, duplicate
# Experimental: (§1) A variant form of Streptomyces mobaraensis transglutaminase having the amino acid sequence depicted in SEQ ID NO:6 was prepared by literature methods with a hexa-his-tag to aid in purification (Javitt, et al. (2017) BMC Biotechnol. 17:23). The cells were grown in shake flasks, lysed by homogenization, and the Tgase variant (SEQ ID NO:6) was isolated from the cell debris by centrifugation. The resulting semi-purified enzyme (clarified lysate) were compared on an SDS-PAGE gel, by spectroscopy, and activity for concentration of active enzyme. The Tgase variant (SEQ ID NO:6) was further purified by affinity column on a Ni-IMAC resin prior to MIC assay. Tgase activity was measured in the examples herein using a colorimetric hydroxamate activity assay (Folk and Cole (1965) J Biol Chemistry 240(7):2951-2960). The enzyme was diluted to a working stock concentration of 2 mg/mL in CAMHB or RPMI media (bacterial or fungal media). This was then 2-fold serial diluted ten times in the appropriate media in a 96-well master plate to generate 2× starting concentrations for MIC testing.
# (§2) Strains were acquired from the American Type Culture Collection (ATCC) (Manassas, VA) and maintained as −80° C. frozen glycerol stocks: S. aureus ATCC 6538, E. coli ATCC 8739, P. aeruginosa ATCC 9027, C. albicans ATCC 10231, and A. brasiliensis ATCC 16404. B. subtilis BGSC 1A1276 was purchased from the Bacillus Genetic Stock Center (BGSC) (Columbus, OH) and maintained as −80° C. frozen glycerol stock. Cation-adjusted Mueller-Hinton broth (CAMHB) at pH 7.3 was used for testing with bacterial species (unless otherwise noted), while RPMI 1640 media buffered with 0.165 M MOPS at pH 7.0 was used for testing with all fungal species.
# For MIC determination, bacterial strains (S. aureus ATCC 6538, E. coli ATCC 8739, P. aeruginosa ATCC 9027) were grown overnight on Tryptic Soy Agar (TSA) plates at 37° C. A few colonies of each strain were collected with a sterile swab and used to make a McFarland 0.5 standard solution (approximately 1×10^8 CFU/mL) in sterile PBS. […]
# E. coli ATCC 8739 = test: MIC determination, E. coli; conditions: CAMHB pH 7.3, 37° C., 18 to 20 hours, duplicate
# Experimental: as §1, §2
# For MIC determination, bacterial strains (S. aureus ATCC 6538, E. coli ATCC 8739, P. aeruginosa ATCC 9027) were grown overnight on Tryptic Soy Agar (TSA) plates at 37° C. A few colonies of each strain were collected with a sterile swab and used to make a McFarland 0.5 standard solution (approximately 1×10^8 CFU/mL) in sterile PBS. The McFarland solution was then diluted 1:100 in CAMHB to generate the inoculum, and 50 μL of this inoculum was combined with 50 μL of the 2× test article in a 96-well plate for a final concentration of 1×. All test conditions were performed in duplicate. The bacterial-strain MIC 96-well plates were incubated at 37° C. for 18 to 20 hours. MIC is defined as the lowest concentration of a compound in which no visible growth is observed.
# [1] = tested on: A. brasiliensis ATCC 16404; test: MIC determination, A. brasiliensis; conditions: RPMI 1640 pH 7.0, 25° C., up to 7 days, duplicate
# Experimental: as §1, with “testing. […]” for “testing.”
# C. albicans MIC 96-well plate was incubated for 37° C. for 24 to 48 hours. […] After incubation, all 96-well plates were examined visually and on a spectrophotometer at absorbance OD650. […]
# B. subtilis BGSC 1A1276 = test: MIC determination, B. subtilis; conditions: duplicate, listed as Tgase variant (SEQ ID NO: 6)
# Experimental: as §1
# Strains were acquired from the American Type Culture Collection (ATCC) (Manassas, VA) and maintained as −80° C. frozen glycerol stocks: S. aureus ATCC 6538, E. coli ATCC 8739, P. aeruginosa ATCC 9027, C. albicans ATCC 10231, and A. brasiliensis ATCC 16404. […]
# [2] = tested on: C. parapsilosis ATCC 22019; test: MIC determination, C. parapsilosis; conditions: duplicate, listed as Tgase variant (SEQ ID NO: 6)
# [3] = tested on: C. parapsilosis ATCC 22019; test: Minimum fungicidal concentration (MFC), C. parapsilosis; conditions: no colonies recovered, duplicate, listed as Tgase variant (SEQ ID NO: 6)
molecule,measurement,setting,value
B1,Fold improvement in enzyme efficacy,C. albicans ATCC 10231; Tgase (SEQ ID NO: 1) = 1,10
same,Percent Growth Reduction,C. albicans ATCC 10231; enzyme concentration 80 ug/mL,99.95%
same,MIC,P. aeruginosa ATCC 9027,">1,000 μg/mL"
same,MIC,E. coli ATCC 8739,">1,000 μg/mL"
same,MIC,[1],62.5 µg/mL
same,MIC,B. subtilis BGSC 1A1276,80 µg/mL and 120 µg/mL
same,MIC,[2],250 µg/mL and 125 µg/mL
same,MFC,[3],250 µg/mL and 125 µg/mL
